Publication PMC11574045, “A cofactor-induced repressive type of transcription factor condensation can be induced by synthetic peptides to suppress tumorigenesis” (The EMBO Journal, 2024)

These molecules were tested on HEK293FT cells transfected with TF library (assay: Screening of TF condensates based on fluorescent puncta). Conditions: Figure 1B numerical data; TF library screen, one value per transcriptional factor.
Format: cell-based
In short: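 HEK293FT cells were reverse-transfected with Flag- or GAL4-tagged TF plasmids (1.6 μg/ml, PEI). After 60 h, cells were cultured 12 h with or without glucose, then fixed and immunostained with anti-Flag or anti-GAL4 and Alexa 488 secondaries. Fluorescent puncta were imaged over fifty random fields per well by high-content imaging.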

Molecule	Z score of condensed fraction
ZNF550 (protein, UniProt Q7Z398 1-422, looked up) Zinc finger protein 550: MAETKDAAQMLVTFKDVAVTFTREEWRQLDLAQRTLYREVMLETCGLLVSLGHRVPKPELVHLLEHGQELWIVKRGLSHATCAGDRAQVHTREPTTYPPVLSERAFLRGSLTLESSTSSDSRLGRARDEEGLLEMQKGKVTPETDLHKETHLGKVSLEGEGLGTDDGLHSRALQEWLSADVLHECDSQQPGKDALIHAGTNPYKCKQCGKGFNRKWYLVRHQRVHTGMKPYECNACGKAFSQSSTLIRHYLIHTGEKPYKCLECGKAFKRRSYLMQHHPIHTGEKPYECSQCRKAFTHRSTFIRHNRTHTGEKPFECKECEKAFSNRAHLIQHYIIHTGEKPYDCMACGKAFRCSSELIQHQRIHTGEKPYECTQCGKAFHRSTYLIQHSVIHTGEMPYKCIECGKAFKRRSHLLQHQRVHT	-0.5599
ZNF555 (protein, UniProt Q8NEP9 1-628, looked up) Zinc finger protein 555: MDSVVFEDVAVDFTLEEWALLDSAQRDLYRDVMLETFQNLASVDDETQFKASGSVSQQDIYGEKIPKESKIATFTRNVSWASVLGKIWDSLSIEDQTTNQGRNLSRNHGLERLCESNDQCGEALSQIPHLNLYKKIPPGVKQYEYNTYGKVFMHRRTSLKSPITVHTGHKPYQCQECGQAYSCRSHLRMHVRTHNGERPYVCKLCGKTFPRTSSLNRHVRIHTAEKTYECKQCGKAFIDFSSLTSHLRSHTGEKPYKCKECGKAFSYSSTFRRHTITHTGEKPYKCKECAEAFSYSSTFRRHMISHTGEKPHKCKECGEAFSYSSAFRRHMITHTGEKPYECKQCGKTFIYLQSFRRHERIHTGEKPYECKQCGKTFIYPQSFRRHERTHGGEKPYECNQCGKAFSHPSSFRGHMRVHTGEKPYECKQCGKTFNWPISLRKHMRTHTREKPYECKQCGKAFSLSACFREHVRMHPEDKSYECKLCGKAFYCHISLQKHMRRHTAEKLYKCKQCGKAFSWPELLQQHVRTHTVEKPYECKECGKVFKWPSSLPIHMRLHTGEKPYQCKHCGKAFNCSSSLRRHVRIHTTEKQYKCNVGHPPANEFMCSASEKSHQERDLIKVVNMVLPL	-0.894
ZNF563 (protein, UniProt Q8TA94 1-476, looked up) Zinc finger protein 563: MDAVAFEDVAVNFTQEEWALLGPSQKNLYRYVMQETIRNLDCIRMIWEEQNTEDQYKNPRRNLRCHMVERFSESKDSSQCGETFSLIRDSIVNNSICPGEDPCQSAECEEVIMGHLSLNSHIRVDSGHKPHEYQEYGEKPHTHKQRGKAFSYHHSFQSRGRPHTGKKRYECKECGKTFSSRRNLRRHMVVQGGNRPYKCKLCGKAFFWPSLLRMHERTHTGEKPYECKQCSKAFPFYSSYRRHERMHTGEKPYECKQCSKALPDSSSYIRHERTHTGEKPYTCKQCGKAFSVSSSLRRHETTHSAEKPYECKQCGKTFHHLGSFQIHMKRHTGDRPHKCKICGKGFDRPSLVRYHERIHTGEKPYECKQCGKTLSHSSSFRRHMIMHTGGGPHKCKICGKAFVYPSVCQRHEKSHSGEKPYECKQCGKALSHSSSFRRHMVMHTGDGPNKCKVCGKAFVYPSVCQRHEKTHWRETI	-0.4635
ZNF567 (protein, UniProt Q8N184 1-647, looked up) Zinc finger protein 567: MAQGSVSFNDVTVDFTQEEWQHLDHAQKTLYMDVMLENYCHLISVGCHMTKPDVILKLERGEEPWTSFAGHTCLEENWKAEDFLVKFKEHQEKYSRSVVSINHKKLVKEKSKIYEKTFTLGKNPVNSKNLPPEYDTHGRILKNVSELIISNLNPARKRLSEYNGYGKSLLSTKQETTHPEVKSHNQSARAFSHNEVLMQYQKTETPAQSFGYNDCEKSFLQRGGLITHSRPYKGENPSVYNKKRRATNIEKKHTCNECGKSFCRKSVLILHQGIHSEEKPYQCHQCGNAFRRKSYLIDHQRTHTGEKPFVCNECGKSFRLKTALTDHQRTHTGEKSYECLQCRNAFRLKSHLIRHQRTHTGEKPYECNDCGKSFRQKTTLSLHQRIHTGEKPYICKECGKSFHQKANLTVHQRTHTGEKPYICNECGKSFSQKTTLALHEKTHNEEKPYICSECGKSFRQKTTLVAHQRTHTGEKSYECPHCGKAFRMKSYLIDHHRTHTGEKPYECNECGKSFSQKTNLNLHQRIHTGEKPYVCNECGKSFRQKATLTVHQKIHTGQKSYECPQCGKAFSRKSYLIHHQRTHTGEKPYKCSECGKCFRQKTNLIVHQRTHTGEKPYVCNECGKSFSYKRNLIVHQRTHKGENIEMQ	-0.7114
ZNF576 (protein, UniProt Q9H609 1-170, looked up) Zinc finger protein 576: MEDPNPEENMKQQDSPKERSPQSPGGNICHLGAPKCTRCLITFADSKFQERHMKREHPADFVAQKLQGVLFICFTCARSFPSSKALITHQRSHGPAAKPTLPVATTTAQPTFPCPDCGKTFGQAVSLRRHRQMHEVRAPPGTFACTECGQDFAQEAGLHQHYIRHARGEL	-0.3795
ZNF581 (protein, UniProt Q9P0T4 1-197, looked up) Zinc finger protein 581: MLVLPSPCPQPLAFSSVETMEGPPRRTCRSPEPGPSSSIGSPQASSPPRPNHYLLIDTQGVPYTVLVDEESQREPGASGAPGQKKCYSCPVCSRVFEYMSYLQRHSITHSEVKPFECDICGKAFKRASHLARHHSIHLAGGGRPHGCPLCPRRFRDAGELAQHSRVHSGERPFQCPHCPRRFMEQNTLQKHTRWKHP	-0.1395
ZNF586 (protein, UniProt Q9NXT0 1-402, looked up) Zinc finger protein 586: MAAAAALRAPAQSSVTFEDVAVNFSLEEWSLLNEAQRCLYRDVMLETLTLISSLGCWHGGEDEAAPSKQSTCIHIYKDQGGHSGERPYECGEYRKLFKNKSCLTEPRRDHKHRNVRTGERPYECSKYGKLFHQKPTLHIHERFHTGQKTYECSECGKSFHQSSSLLQRQTLHTRERPYECIECGKAFAEKSSLINHRKVHSGAKRYECNECGKSFAYTSSLIKHRRIHTGERPYECSECGRSFAENSSLIKHLRVHTGERPYECVECGKSFRRSSSLLQHQRVHTRERPYECSECGKSFSLRSNLIHHQRVHTGERHECGQCGKSFSRKSSLIIHLRVHTGERPYECSDCGKSFAENSSLIKHLRVHTGERPYECIDCGKSFRHSSSFRRHQRVHTGMRPYK	0.1456
CDKN2C (protein, UniProt P42773 1-168, looked up) Cyclin-dependent kinase 4 …: MAEPWGNELASAAARGDLEQLTSLLQNNVNVNAQNGFGRTALQVMKLGNPEIARRLLLRGANPDLKDRTGFAVIHDAARAGFLDTLQTLLEFQADVNIEDNEGNLPLHLAAKEGHLRVVEFLVKHTASNVGHRNHKGDTACDLARLYGRNEVVSLMQANGAGGATNLQ	-0.5488
ZNF671 (protein, UniProt Q8TAW3 1-534, looked up) Zinc finger protein 671: MLSPVSRDASDALQGRKCLRPRSRRLPLPAAVRAHGPMAELTDSARGCVVFEDVFVYFSREEWELLDDAQRLLYHDVMLENFALLASLGIAFSRSRAVMKLERGEEPWVYDQVDMTSATEREAQRGLRPGCWHGVEDEEVSSEQSIFVAGVSEVRTLMAELESHPCDICGPILKDTLHLAKYHGGKARQKPYLCGACGKQFWFSTDFDQHQNQPNGGKLFPRKEGRDSVKSCRVHVPEKTLTCGKGRRDFSATSGLLQHQASLSSMKPHKSTKLVSGFLMGQRYHRCGECGKAFTRKDTLARHQRIHTGERPYECNECGKFFSQSYDLFKHQTVHTGERPYECSECGKFFRQISGLIEHRRVHTGERLYQCGKCGKFFSSKSNLIRHQEVHTGARPYVCSECGKEFSRKHTLVLHQRTHTGERPYECSECGKAFSQSSHLNVHWRIHSSDYECSRCGKAFSCISKLIQHQKVHSGEKPYECSKCGKAFTQRPNLIRHWKVHTGERPYVCSECGREFIRKQTLVLHQRVHAGEKL	-0.9445
CDX1 (protein, UniProt P47902 1-265, looked up) Homeobox protein CDX-1: MYVGYVLDKDSPVYPGPARPASLGLGPQAYGPPAPPPAPPQYPDFSSYSHVEPAPAPPTAWGAPFPAPKDDWAAAYGPGPAAPAASPASLAFGPPPDFSPVPAPPGPGPGLLAQPLGGPGTPSSPGAQRPTPYEWMRRSVAAGGGGGSGKTRTKDKYRVVYTDHQRLELEKEFHYSRYITIRRKSELAANLGLTERQVKIWFQNRRAKERKVNKKKQQQQQPPQPPMAHDITATPAGPSLGGLCPSNTSLLATSSPMPVKEEFLP	2.938
